# Assay results taken from US10087443B2, “Compositions and methods for modulating neuronal excitability and motor behavior” (ICAHN SCHOOL OF MEDICINE AT MOUNT SINAI, priority 2013, dated 2018).
# How the values were obtained:
# miR-128-2−/− mice = assay: Survival of miR-128-2-/- mice under anticonvulsant treatment (Kaplan-Meier survival curves); assay type: in vivo; settings: sodium valproate 0.26% w/v in drinking water, oral, n=11
# [1] = test system: Dravet-syndrome mice (Scn1a or Gabrg2 deficient mice); assay: Ectopic miR-128 overexpression in Dravet-syndrome mouse models (Scn1a or Gabrg2 deficient mice); assay type: in vivo; settings: supplied into neurons of the hippocampus or thalamus; Dravet-like syndrome mice
# Excerpt: The inventors of the instant disclosure ectopically overexpress miR-128 in mouse models of severe human generalized childhood epilepsy such as the Dravet-syndrome (Scn1a or Gabrg2 deficient mice) to establish the efficacy of miR-128 in averting seizures in these mice. Mice with a loss of Scna1 and Gabrg2 display spontaneous seizures and ataxia beginning in the fourth postnatal week followed by premature death from seizure-related cause. Applicants test the effects of miR-128 overexpression on seizure development and survival in three to four week old Dravet-syndrome mice. The ability of genetic miR-128 overexpression in postnatal forebrain neurons to protect mice against spontaneous seizure development is also tested. Secondly, Applicants test the seizure-suppressing ability of oligonucleotide or AAV-based miR-128 overexpression in different brain regions (striatum, temporal cortex, hippocampus, mediodorsal thalamus) to determine whether there are specific locations that can short-circuit brain-wide seizures due to local miR-128 overexpression. Ectopically supplied miR-128 into the neurons of the hippocam pus or thalamus protects mice suffering from Dravet-like syndrome against spontaneous recurrent seizures and premature death.
# [2] = test system: primary striatal neuron cultures; assay: Gene expression (TaqMan qRT-PCR) in BDNF-treated primary striatal neuron cultures; assay type: cell-based, mouse; settings: 0.05 ng/ul BDNF, day 10 in vitro; 0, 2, 6 and 24 hours
# Method: Primary striatal neuron cultures obtained from E18 mouse brain were treated on day 10 in vitro with 0.05 ng/ul brain-derived neurotrophic factor (BDNF) in water. RNA from cultures was prepared at 0, 2, 6 and 24 hours after stimulation and gene expression change were analyzed using the Tagman qRT-PCR assay. […] Data are shown as mean, error bars represent s.e.m., p-value was determined by 2-way ANOVA, FosB treatment 0.0014, time <0.0001. 124a treatment 0.1091, time 0.0861, Arpp21 treatment 0.0064, time 0.0190. miR-128-2 treatment 0.0160, time 0.2097.
# Relative expression levels of mature miRNAs and mRNAs were measured by TaqMan assays using total extracted RNA from brain samples, according to manufacturer's protocol (Life Technologies, Carlsbad, Calif.). Purified RNA samples were assayed by qRT-PCR for relative gene expression using pre-designed TaqMan gene expression assays from Applied Biosystems (ABI) as recommended by the manufacture. The following pre-designed TaqMan gene expression assays from Applied Biosystems (ABI) were used: miR-128 (Assay ID 002216), sno135 (Assay ID 001230), miR-124a (Assay ID 001182), Fosb Mm00500401_m1, Fosl2 Mm00484442_m1, Arc Mm00479619_g1, JunB Mm04243546_s1, Darpp-32 Mm00454892_m1, Btg2 Mm00476162_m1, Gadd45g Mm01352550_g1, Dusp1 Mm00457274_g1, Nr4a1 Mm01300401_m1, Jun Mm00495062_s1, Actb Mm00607939_s1, Arpp-21 Mm00473630_m1 (exon spanning probe detects exons that are common to all Arpp-21 isoforms), Arpp21 Mm00473645_m1 (exon spanning probe that specifically detects the long TARPP-isoform of Arpp-21). Cycle counts for miRNA quantification were normalized to snoRNA135 or miR-124a as indicated, and cycle counts for mRNA quantification were normalized to Actb or Gapdh. […] Calculation of standard deviation (SDΔCt=(SDtarget2+SDref2)1/2) and error bars (RQ1=2^(−(ΔΔCt+SDΔΔCt)), and RQ2=2^(−(ΔΔCt−SDΔΔCt))) was performed according to ABI technical literature Part Number 4371095 Rev B.
molecule,measurement,setting,value
CCCC(CCC)C(=O)O [valproic acid],lethal impact of miR-128 deficiency (lifespan),miR-128-2−/− mice,prevented
"miR-128: microRNA, UCACAGUGAACCGGUCUCUUU (SEQ ID NO: 1) (listed as RNA, chemistry not fully specified)",spontaneous recurrent seizures and premature death,[1],protects
"BDNF: brain-derived neurotrophic factor, inducer of miR-128 expression (protein, UniProt P23560 19-247, looked up) Neurotrophic factor BDNF …: APMKEANIRGQGGLAYPGVRTHGTLESVNGPKAGSRGLTSLADTFEHVIEELLDEDQKVRPNEENNKDADLYTSRVMLSSQVPLEPPLLFLLEEYKNYLDAANMSMRVRRHSDPARRGELSVCDSISEWVTAADKKTAVDMSGGTVTVLEKVPVSKGQLKQYFYETKCNPMGYTKEGCRGIDKRHWNSQCRTTQSYVRALTMDSKKRIGWRFIRIDTSCVCTLTIKRGR",expression of immediate early gene FosB,[2],strong but transient inducer
same,expression of miR-128,[2],stable increase
same,expression of miR-128 host gene Arpp21,[2],stable increase
same,expression of neuron-specific miRNA miR-124a,[2],no effect
